Experimental data published in patent US20190389958A1 (MSM PROTEIN TECHNOLOGIES, published 2019).

B1: V62.1-R108H-m47-m38 (antibody, human IgG1, V domains shown)
VH: EVQLLESGGGLVQPGGSLRLSCAASGFTFSSYAMSWVRQAPGKGLEWVSAISGSGGTRYADSVKGRFTISRDNSKNTLYLQMNSLRAEDTAVYYCARQGKTRVYGYHWHGYGSTHALDYWGQGTLVTVSS
VL: EIVLTQSPGTLSLSPGERATLSCRASQSVSSSYLAWYQQKPGQAPRLLIYGASSRATGIPDRFSGSGSGTDFTLTISRLEPEDFAVYYCQQWSSDSVTFGQGTKVEIKR
notes: Tested as an IgG (human IgG1 format); also called V62.1-H-m47-m38; IgG1 62.1-R108H-m47-m38
B2: V62.1-R108H (antibody, human IgG1, V domains shown)
VH: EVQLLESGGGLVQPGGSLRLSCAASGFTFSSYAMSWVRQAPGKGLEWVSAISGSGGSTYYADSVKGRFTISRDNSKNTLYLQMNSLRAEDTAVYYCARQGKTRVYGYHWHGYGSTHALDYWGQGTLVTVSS
VL: EIVLTQSPGTLSLSPGERATLSCRASQSVSSSYLAWYQQKPGQAPRLLIYGASSRATGIPDRFSGSGSGTDFTLTISRLEPEDFAVYYCQQSDYSYPFTFGQGTKVEIKR
notes: Tested as an IgG (human IgG1 format); also called IgG1 V62.1 R108H
B3: V62.1-R108H-m80 (antibody, human IgG1, V domains shown)
VH: EVQLLESGGGLVQPGGSLRLSCAASGFTISPYSITWVRQAPGKGLEWVSQINSYNGKTYYADSVKGRFTISRDNSKNTLYLQMNSLRAEDTAVYYCARQGKTRVYGYHWHGYGSTHALDYWGQGTLVTVSS
VL: B2 VL
notes: Tested as an IgG (human IgG1 format); also called V62.1-H-m80; V62.1-R108H-m80-Wt
B4: V62.1 (antibody, human IgG1, V domains shown)
VH: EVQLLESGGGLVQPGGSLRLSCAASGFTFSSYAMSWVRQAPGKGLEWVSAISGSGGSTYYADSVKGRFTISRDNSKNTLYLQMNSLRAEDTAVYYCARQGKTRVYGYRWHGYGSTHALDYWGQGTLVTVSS
VL: B2 VL
notes: Tested as an IgG (human IgG1 format; DP47 heavy and DPK22 kappa light frameworks) made in CHO-3E7 cells; also called IgG V62.1

target: T1, human CXCR4 (human, UniProt P61073 1-352); assay: cell-based or functional assay
T1 sequence (P61073 whole entry): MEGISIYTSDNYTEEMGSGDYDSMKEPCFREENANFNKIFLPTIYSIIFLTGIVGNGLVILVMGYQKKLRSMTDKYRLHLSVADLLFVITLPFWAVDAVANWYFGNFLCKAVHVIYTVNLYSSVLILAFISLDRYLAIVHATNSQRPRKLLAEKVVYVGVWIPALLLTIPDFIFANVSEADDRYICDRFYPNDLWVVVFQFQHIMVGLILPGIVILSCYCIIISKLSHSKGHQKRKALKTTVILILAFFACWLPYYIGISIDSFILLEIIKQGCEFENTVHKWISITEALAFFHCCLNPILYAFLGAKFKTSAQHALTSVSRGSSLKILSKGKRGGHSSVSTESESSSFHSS

B1 and B2 are within 1.5-fold of each other in “IC50 (nM), inhibition of SDF-1alpha-induced calcium flux” value: 5 nM for the first, 6.8 nM for the second.

B3 and B4 are within 1.5-fold of each other in “IC50 (nM), inhibition of SDF-1alpha-induced calcium flux” value: 7.5 nM for the first, 7.4 nM for the second.

target: T2, hCCR3 (human, UniProt P51677 1-355); assay: flow cytometry, IgG 100 nM, cells over-expressing hCCR3
T2 construct: whole, on cells
T2 sequence (looked up): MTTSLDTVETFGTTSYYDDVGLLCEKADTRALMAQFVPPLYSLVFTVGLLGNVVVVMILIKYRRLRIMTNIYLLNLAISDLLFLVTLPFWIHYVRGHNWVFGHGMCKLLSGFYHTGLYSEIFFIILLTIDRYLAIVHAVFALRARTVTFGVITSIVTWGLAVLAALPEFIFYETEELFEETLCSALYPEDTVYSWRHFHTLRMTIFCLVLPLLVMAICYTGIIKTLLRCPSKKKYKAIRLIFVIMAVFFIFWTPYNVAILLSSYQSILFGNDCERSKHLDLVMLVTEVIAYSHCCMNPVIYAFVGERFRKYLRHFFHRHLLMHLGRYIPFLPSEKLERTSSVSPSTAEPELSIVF
Procedure: (§1) Cells over-expressing different GPCRs other than CXCR4 and several lines transfected to over-express CXCR4 (R1610-hCXCR4, Cf2Th-hCXCR4 and CHO-hCXCR4) were compared. Cultures were incubated with a test IgG at 100 nM in FACS buffer for 40 min at 4° C. Thereafter, cells were washed twice, stained with anti-human-Fc antibody-PE conjugate (Jackson Immunoresearch Laboratories Inc., West Grove, Pa.), washed twice in FACS buffer and then transferred to FIX buffer. Fluorescence intensities were measured by GUAVA PCA-96 at 425V (in triplicate).
(§2) The expression of GPCRs other than CXCR4 was confirmed using commercially available antibodies (positive controls). For example, a commercial anti-CXCR1 antibody was used as a positive control for confirming the expression of CXCR1 on the CXCR1-transfected CHO cells.

Compared with B2, B3 is lower in MFI: 4 for the first, 2 for the second.

Binder B4 has an MFI of 4.

target: T3, hCCR4 (human, UniProt P51679 1-360); assay: flow cytometry, IgG 100 nM, cells over-expressing hCCR4
T3 construct: whole, on cells
T3 sequence (looked up): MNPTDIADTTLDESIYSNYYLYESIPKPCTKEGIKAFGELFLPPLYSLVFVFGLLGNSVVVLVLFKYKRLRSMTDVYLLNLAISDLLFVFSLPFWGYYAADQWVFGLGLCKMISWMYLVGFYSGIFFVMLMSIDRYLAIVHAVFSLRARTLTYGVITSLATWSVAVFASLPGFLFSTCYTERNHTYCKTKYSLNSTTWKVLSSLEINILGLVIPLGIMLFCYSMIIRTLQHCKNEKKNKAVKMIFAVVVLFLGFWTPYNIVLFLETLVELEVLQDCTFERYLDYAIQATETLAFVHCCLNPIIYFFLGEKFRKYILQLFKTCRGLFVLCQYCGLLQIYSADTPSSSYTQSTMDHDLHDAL
Procedure: as §1, §2

Compared with B1, B2 is higher in MFI: 2 for the first, 3 for the second.

Going from B3 to B4, the MFI rises from 2 to 3.

target: T4, hCCR9 (human, UniProt P51686 1-369); assay: flow cytometry, IgG 100 nM, cells over-expressing hCCR9
T4 construct: whole, on cells
T4 sequence (looked up): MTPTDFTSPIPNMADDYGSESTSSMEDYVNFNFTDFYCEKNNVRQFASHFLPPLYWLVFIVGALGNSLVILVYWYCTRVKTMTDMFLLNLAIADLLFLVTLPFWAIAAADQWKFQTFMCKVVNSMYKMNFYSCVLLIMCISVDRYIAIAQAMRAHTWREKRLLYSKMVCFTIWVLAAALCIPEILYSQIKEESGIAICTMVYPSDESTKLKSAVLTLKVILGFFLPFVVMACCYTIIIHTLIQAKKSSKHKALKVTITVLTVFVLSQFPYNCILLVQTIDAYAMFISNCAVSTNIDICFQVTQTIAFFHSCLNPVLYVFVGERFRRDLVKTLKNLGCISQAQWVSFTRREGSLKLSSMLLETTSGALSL
Procedure: as §1

Compared with B1, B2 is higher in MFI: 2 for the first, 3 for the second.

First: B3
Second: B4
The MFI of the first is higher: 8 for the first, 4 for the second.

target: T5, hCXCR5 (human, UniProt P32302 1-372); assay: flow cytometry, IgG 100 nM, cells over-expressing hCXCR5
T5 construct: whole, on cells
T5 sequence (looked up): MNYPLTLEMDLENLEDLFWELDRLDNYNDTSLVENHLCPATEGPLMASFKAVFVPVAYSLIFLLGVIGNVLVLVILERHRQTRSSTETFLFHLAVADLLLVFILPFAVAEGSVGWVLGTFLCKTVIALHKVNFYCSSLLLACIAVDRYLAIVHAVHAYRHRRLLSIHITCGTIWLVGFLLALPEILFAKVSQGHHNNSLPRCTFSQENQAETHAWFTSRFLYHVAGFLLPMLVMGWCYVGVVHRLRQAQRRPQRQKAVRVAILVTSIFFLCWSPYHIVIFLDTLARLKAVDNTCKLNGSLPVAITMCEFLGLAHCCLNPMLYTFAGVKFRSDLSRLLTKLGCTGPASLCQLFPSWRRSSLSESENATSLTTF
Procedure: as §1, §2

Compared with B1, B2 is higher in MFI: 2 for the first, 3 for the second.

Compared with B3, B4 is higher in MFI: 2 for the first, 4 for the second.

target: T6, hCXCR7 (human, UniProt P25106 1-362); assay: flow cytometry, IgG 100 nM, cells over-expressing hCXCR7
T6 construct: whole, on cells
T6 sequence (P25106 whole entry): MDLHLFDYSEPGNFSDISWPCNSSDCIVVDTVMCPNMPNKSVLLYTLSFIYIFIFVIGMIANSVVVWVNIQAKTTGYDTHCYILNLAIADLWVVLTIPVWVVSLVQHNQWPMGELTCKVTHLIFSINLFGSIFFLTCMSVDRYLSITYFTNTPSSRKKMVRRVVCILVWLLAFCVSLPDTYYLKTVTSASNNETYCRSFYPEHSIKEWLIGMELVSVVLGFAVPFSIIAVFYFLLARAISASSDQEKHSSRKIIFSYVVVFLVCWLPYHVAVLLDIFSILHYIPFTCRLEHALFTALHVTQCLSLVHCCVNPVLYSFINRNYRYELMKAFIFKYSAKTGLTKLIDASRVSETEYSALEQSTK
Procedure: as §1, §2

Going from B1 to B2, the MFI rises from 2 to 4.

First: B3
Second: B4
The MFI of the first is lower: 2 for the first, 3 for the second.

target: T1, human CXCR4; assay: flow cytometry, IgG 10 µg/mL, CXCR4-expressing Ramos (RA1) cells
Procedure: Binding of test IgGs to CXCR4-expressing human lymphoma cells (Ramos; RA1, ATCC® CRL-1596™) was measured by fluorescent flow cytometry-based assay. Tumor cell staining was conducted as follows: human Fcγ receptors of RA1 cells were saturated by incubation at 4° C. for 30 minutes in PBS containing 2% human serum and 0.5 mM EDTA. Cells were then incubated at 4° C. for one hour with test IgGs or a human isotypic IgG1 kappa control (Coger Sarl, Paris, France) (both antibody types at 10 μg/mL). The cells were washed with PBS and further incubated for one hour at 4° C. with a goat F(ab′)2 fragment anti-human IgG (H+L)-PE (Beckman Coulter). The cells were washed twice with PBS and fixed with 0.5% formaldehyde in PBS for analysis by flow cytometry. The data were acquired using an eleven-color flow cytometer (LSRII, BD Biosciences), and the analyses were performed with the FlowJo flow cytometry analysis software (Tree Star Inc., Ashland, Oreg.). The living cells were selected using the side scatter (SSC) and the forward scatter (FSC); 10,000 events were acquired for each analysis. MFI values were recorded using the PE channel.

Going from B1 to B2, the MFI falls from 549 to 429.

First: B3
Second: B4
The MFI of the first is lower: 440 for the first, 595 for the second.
